Positions count from the first letter of the chain named.

Consider two molecules from paper PMC2198831 (The Journal of Cell Biology, 2001).

The target in test [1] is T1, yeast capping protein Cap1/2p, purified (S. cerevisiae, UniProt P28495;P13517).
T1 sequence 1: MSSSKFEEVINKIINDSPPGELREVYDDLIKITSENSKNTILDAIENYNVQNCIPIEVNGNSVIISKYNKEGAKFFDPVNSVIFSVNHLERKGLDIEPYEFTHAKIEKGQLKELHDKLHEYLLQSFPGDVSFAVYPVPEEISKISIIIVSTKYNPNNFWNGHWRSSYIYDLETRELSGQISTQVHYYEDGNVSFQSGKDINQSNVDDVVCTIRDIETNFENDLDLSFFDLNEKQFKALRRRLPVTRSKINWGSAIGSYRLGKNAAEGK
T1 sequence 2: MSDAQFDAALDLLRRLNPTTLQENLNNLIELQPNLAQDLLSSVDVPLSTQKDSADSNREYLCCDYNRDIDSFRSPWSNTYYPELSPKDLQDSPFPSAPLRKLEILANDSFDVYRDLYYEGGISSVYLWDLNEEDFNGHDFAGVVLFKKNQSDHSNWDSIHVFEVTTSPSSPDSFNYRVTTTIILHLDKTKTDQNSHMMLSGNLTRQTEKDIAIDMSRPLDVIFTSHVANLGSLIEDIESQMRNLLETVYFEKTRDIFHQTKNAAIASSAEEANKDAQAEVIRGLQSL
Briefly: native gel or EMSA. A general note: Mobility shift assays separate free from complexed probe on a gel.

The target in another test is yeast actin monomers (S. cerevisiae, UniProt P60010 1-375). Briefly: native gel or EMSA.

B1: yeast twinfilin (Twf1p), wild type, purified recombinant (natural protein)
chain: MSTQSGIVAEQALLHSLNENLSADGIVIIIAKISPDSTSVHQTQVARSFEELVQLASQEREPLYIFYKPEGLDKYFFVSFIPDGSPVRSRMLYASTKNTLARQVGSNSLSTEQPLITDAQDLVDLKNFDSARPAGQNKPLTHDEEMQIEINKQQALLRKNTSVKLVSQDSASPLSLTFRVNSEKPINEILDSEGKNLIIFQIDPSNETIQIVQSDTCPSVDELYIDLPGPSYTIFRQGDSSFFIYSCPSGSKVKDRMIYASNKNGFINYLKNDQKIAFSKVVEIGDFVELDKSLLMATNKEDSLDHGSNPDLPNKSNLKFNKPKGPLRKRRT
As for B1, the binding result (in test [1]; with yeast actin monomers) was “binds” each time.

B2: Twf1-3p mutant yeast twinfilin (alanines in both ADF-H domains) (natural protein)
chain: B1 chain with R88A, R90A, K254A, R256A
For the molecule B2, in test [1], the binding result is listed as “binds”.
